Six molecules from patent publication US7326541 (TARGANTA THERAPEUTICS, dated 2008) can be followed below.

B1: Lamin C control of the yeast two-hybrid system (pGBKLaminC) (other)
chain: MKLLSSIEQACDICRLKKLKCSKEKPKCAKCLKNNWECRYSPKTKRSPLTRAHLTEVESRLERLEQLFLLIFPREDLDMILKMDSLQDIKALLTGLFVQDNVNKDAVTDRLASVETDMPLTLRQHRISATSSSEESSNKGQRQLTVSSEEVVSREVSGIKAAYEAELGDARKTLDSVAKERARLQLELSKVREEFKELKARNTKKEGDLIAAQARLKDLEALLNSKEAALSTALSEKRTLEGELHDLRGQVAKLEAALGEAKKQLQDEMLRRVDAENRLQTMKEELDFQKNIYSEELRETKRRHETRLVEID
notes: also called pGBKT7LaminC
B2: 96 ORF 78 fused to the carboxyl terminus of the yeast Gal4 DNA binding domain (pGBK 96ORF78) (other)
chain: MKLLSSIEQACDICRLKKLKCSKEKPKCAKCLKNNWECRYSPKTKRSPLTRAHLTEVESRLERLEQLFLLIFPREDLDMILKMDSLQDIKALLTGLFVQDNVNKDAVTDRLASVETDMPLTLRQHRISATSSSEESSNKGQRQLTVSMNIMQFKSLLKSMYEETKQSDPIVANVYIETGWAVNRLLDNNELSPFDDYDRVEKKIMNEINWKKTHIKEC
B3: GST-cleaved STAAU_R9-561-599 (peptide)
chain: GQETIESLNHKLREATRIGDVELQKYYLQQIVAKNKERM
modifications: not fully specified; also: labelled with [32P] at the HMK phosphate acceptor site when used as probe
notes: not shown: vector residues left after PreScission cleavage, with the HMK phosphorylation site of pGEX-6PK
B4: STAAU_R9 561 599 (amino acids 561-599 of STAAU_R9, SEQ ID NO: 6) in pGADT7, Gal4 activation domain fusion (other)
chain: B3 chain
notes: Yeast two-hybrid construct
B5: 96 ORF 78 fused to the yeast Gal4 activation domain (pGADT7) (other)
chain: MNIMQFKSLLKSMYEETKQSDPIVANVYIETGWAVNRLLDNNELSPFDDYDRVEKKIMNEINWKKTHIKEC
B6: GST-cleaved 96 ORF 78 polypeptide (from pGEX-6PK 96ORF078) (other)
chain: B5 chain
modifications: labelled with [^32P] at the heart muscle kinase phosphate acceptor site when used as probe
notes: also called [^32P]-96 ORF 78; purified 96 ORF 78 protein; not shown: vector residues left after PreScission cleavage, with the HMK phosphorylation site of pGEX-6PK

The target in assay [1] is T1, STAAU_R9-35 (amino acids 35 to 599 of SEQ ID NO: 2) in pGADT7, Gal4 activation domain fusion (yeast; Staphylococcus aureus, UniProt Q5HFJ8 35-599).
T1 construct: Yeast two-hybrid construct
T1 sequence: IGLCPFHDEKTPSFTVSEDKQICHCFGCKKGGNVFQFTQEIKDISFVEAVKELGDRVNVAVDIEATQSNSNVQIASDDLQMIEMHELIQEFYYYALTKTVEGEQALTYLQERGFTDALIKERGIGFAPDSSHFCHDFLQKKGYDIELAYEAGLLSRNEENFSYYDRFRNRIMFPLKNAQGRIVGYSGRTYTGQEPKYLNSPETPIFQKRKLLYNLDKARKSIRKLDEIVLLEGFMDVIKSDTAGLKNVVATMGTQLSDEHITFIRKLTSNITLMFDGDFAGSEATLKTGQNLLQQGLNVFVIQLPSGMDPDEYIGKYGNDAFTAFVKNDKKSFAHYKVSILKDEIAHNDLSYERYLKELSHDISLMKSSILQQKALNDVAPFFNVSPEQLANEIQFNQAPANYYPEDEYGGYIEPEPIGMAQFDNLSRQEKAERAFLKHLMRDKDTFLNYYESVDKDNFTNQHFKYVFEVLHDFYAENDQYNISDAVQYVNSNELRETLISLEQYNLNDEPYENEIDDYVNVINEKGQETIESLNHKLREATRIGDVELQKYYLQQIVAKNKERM
Description: yeast two-hybrid, growth on THAL minus medium.

The target in assay [2] is T1, STAAU_R9-35 (amino acids 35 to 599 of …). Description: cell-based or functional assay.
Assay [3] addresses B6. Briefly: affinity blotting (Far western), 32P-labelled probe on renatured blotted protein.
For assay [4], the target named is T2, GST/96ORF78 fusion protein from pGEX-6PK 96ORF078 (Staphylococcus aureus bacteriophage 96).
T2 construct: immobilized on nitrocellulose after SDS-PAGE, denatured and renatured; also called GST/960RF78; not shown: N-terminal GST tag encoded by pGEX-6P1 (Pharmacia Amersham Biotech); PreScission protease cleavage site and heart muscle kinase (HMK) phosphorylation site of pGEX-6PK (encoded by oligonucle)
T2 chain: B5 chain
Described as above.

Assay [5] deals with T3, GST (glutathione-S-transferase), negative control (UniProt P08515 1-218 = GST).
T3 construct: also called purified GST protein
The assay is described as above.

Assay [6] deals with B2. Description: yeast two-hybrid, growth on THAL minus medium.
In assay [7] the target is B1. Description: yeast two-hybrid, growth on THAL minus medium.
The target of assay [8] is STAAU_R9-35 (amino acids 35 to 599 of SEQ ID NO: 2) in pGBKT7, Gal4 DNA binding domain fusion (yeast; Staphylococcus aureus, UniProt P04386 1-147). Briefly: cell-based or functional assay.
Assay [9] addresses B3. Description: affinity blotting (Far western), 32P-labelled probe on renatured blotted protein.
The target in assay [10] is T4, GST/STAAU_R9-561-599 fusion protein from pGEX-6PK_STAAU_R9-561-599 (Staphylococcus aureus).
T4 construct: not shown: N-terminal GST tag encoded by pGEX-6P1 (Pharmacia Amersham Biotech); PreScission protease cleavage site, HMK phosphorylation site and cloning-site residues of pGEX-6PK
T4 chain: B3 chain
The assay is described as above.

Where no end group is shown, it is not given here.

T3 sequence (P08515 whole entry): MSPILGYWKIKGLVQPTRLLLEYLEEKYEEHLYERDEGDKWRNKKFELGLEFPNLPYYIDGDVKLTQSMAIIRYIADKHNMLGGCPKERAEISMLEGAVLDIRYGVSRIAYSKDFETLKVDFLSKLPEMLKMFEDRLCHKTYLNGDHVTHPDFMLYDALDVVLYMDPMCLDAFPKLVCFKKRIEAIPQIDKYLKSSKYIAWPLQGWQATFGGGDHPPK

Consider B1, for which the binding result in assay [1] was “no binding”. In [2], B2 registered a β-galactosidase activity of 10 fold. As to B3, the binding result in assay [3] was “binds”; in assay [4], “binds”; in assay [5] it was “no binding”.

Take B4: the binding result in assay [6] is given as “binds”.

Regarding B5, the binding result in [7] is on record as “no binding”. For the same molecule, in [8], the β-galactosidase activity came out at 10 fold. Regarding B6, the binding result in [9] is recorded as “binds”; in [5], “no binding”; in [10], “binds”.
